Source: patent US20210032365A1 (Chugai, published 2021)

Legend:
human C1s [1] = biological target: T1, human C1s (human, UniProt P09871 16-688); assay: SPR, Ab captured; pH 5.8, 3 uM Ca
T1 construct: also called hC1s; serum-derived human C1s (CompTech)
T1 sequence: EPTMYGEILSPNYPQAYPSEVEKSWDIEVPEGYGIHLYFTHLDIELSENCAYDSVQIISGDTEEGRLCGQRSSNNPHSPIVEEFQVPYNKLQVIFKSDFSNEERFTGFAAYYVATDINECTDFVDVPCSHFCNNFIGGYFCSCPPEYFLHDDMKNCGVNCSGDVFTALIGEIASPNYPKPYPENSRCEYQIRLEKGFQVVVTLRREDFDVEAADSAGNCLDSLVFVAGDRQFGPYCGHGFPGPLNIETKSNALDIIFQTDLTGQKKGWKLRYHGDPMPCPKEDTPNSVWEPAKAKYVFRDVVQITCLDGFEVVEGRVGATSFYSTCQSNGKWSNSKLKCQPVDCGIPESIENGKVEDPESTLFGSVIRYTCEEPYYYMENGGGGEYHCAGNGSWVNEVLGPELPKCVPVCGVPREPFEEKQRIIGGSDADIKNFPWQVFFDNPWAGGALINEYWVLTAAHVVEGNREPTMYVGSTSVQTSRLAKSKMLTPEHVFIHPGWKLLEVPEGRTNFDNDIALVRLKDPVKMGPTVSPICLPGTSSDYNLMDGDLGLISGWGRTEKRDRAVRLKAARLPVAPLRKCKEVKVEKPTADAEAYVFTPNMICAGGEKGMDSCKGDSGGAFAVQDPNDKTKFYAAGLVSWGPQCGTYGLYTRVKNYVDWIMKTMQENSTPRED
Description: (§1) All variants were transiently expressed and purified by the method described above. The binding affinity of each histidine-substituted variant at pH 7.4 and pH 5.8 was determined at 37 degrees C. using Biacore T200 instrument (GE Healthcare). Recombinant Protein A/G (Pierce) was immobilized onto all flow cells of a CM4 sensor chip using an amine coupling kit (GE Healthcare). Antibodies and analytes were prepared in 7(+) buffer (20 mM ACES, 150 mM NaCl, 1.2 mM CaCl2, 0.05% Tween 20, 0.005% NaN3, pH 7.4), 5(+) buffer (20 mM ACES, 150 mM NaCl, 1.2 mM CaCl2, 0.05% Tween 20, 0.005% NaN3, pH 5.8), or 5(−) buffer (20 mM ACES, 150 mM NaCl, 3 micro M CaCl2, 0.05% Tween 20, 0.005% NaN3, pH 5.8). Each antibody was captured onto the sensor surface by protein A/G. Antibody capture levels were aimed at 200 resonance unit (RU). Serum-derived human C1s (CompTech) or recombinant C1s prepared in EXAMPLE 1 was injected at 50 nM, followed by dissociation. The sensor surface was regenerated in each cycle with 10 mM Glycine-HCl, pH 1.5. […] The ratio of KD 5.8+ to KD 7.4+(“KD 5+/7+”) and that of KD 5.8− to KD 7.4+(“KD 5−/7+”) were calculated. When the KD 5+/7+ or KD 5−/7+ of a variant is larger than that of the parent antibody IPN009VH2-SG4GK/IPN009VK3-SK1, that variant is considered to be “pH”- or “pH and Ca”-dependent, respectively. When binding response in 5(+) buffer and/or in 5(−) buffer of a variant is much lower than that of IPN09VH2/IPN009VK3, that variant is also considered as “pH”- and/or “pH and Ca”-dependent. Therefore, such mutations are effective to generate “pH”- and/or “pH and Ca”-dependent antibody. To further enhance “pH” and/or “pH and Ca” dependency, a combination of histidine mutations was conducted. Antibodies with combinations of histidine mutations were evaluated using Biacore by the method described above.

human C1s [2] = biological target: T1, human C1s; assay: SPR, Ab captured; pH 7.4, 1.2 mM Ca
Description: as §1

human C1s [3] = biological target: T1, human C1s; assay: SPR, Ab captured; pH 5.8, 1.2 mM Ca
Description: as §1

human C1s [4] = biological target: T1, human C1s; assay: SPR; KD pH 5.8 3 uM Ca / KD pH 7.4 1.2 mM Ca
Description: as §1

human C1s [5] = biological target: T1, human C1s; assay: SPR; KD pH 5.8 1.2 mM Ca / KD pH 7.4 1.2 mM Ca
Description: as §1

human C1s [6] = biological target: T1, human C1s; assay: SPR, Ab captured; pH 7.4, 1.2 mM Ca; remark: listed apart in the source
Description: Each antibody was captured onto the sensor surface by protein A/G. Antibody capture levels were aimed at 200 resonance unit (RU). Serum-derived human C1s (CompTech) or recombinant C1s prepared in EXAMPLE 1 was injected at 50 nM, followed by dissociation. The sensor surface was regenerated in each cycle with 10 mM Glycine-HCl, pH 1.5. […] The ratio of KD 5.8+ to KD 7.4+(“KD 5+/7+”) and that of KD 5.8− to KD 7.4+(“KD 5−/7+”) were calculated. When the KD 5+/7+ or KD 5−/7+ of a variant is larger than that of the parent antibody IPN009VH2-SG4GK/IPN009VK3-SK1, that variant is considered to be “pH”- or “pH and Ca”-dependent, respectively. When binding response in 5(+) buffer and/or in 5(−) buffer of a variant is much lower than that of IPN09VH2/IPN009VK3, that variant is also considered as “pH”- and/or “pH and Ca”-dependent. Therefore, such mutations are effective to generate “pH”- and/or “pH and Ca”-dependent antibody. To further enhance “pH” and/or “pH and Ca” dependency, a combination of histidine mutations was conducted. Antibodies with combinations of histidine mutations were evaluated using Biacore by the method described above.
C1_1IPN92H0033 (SEQ ID NO: 17)-SG4GK/IPN93L0024 (SEQ ID NO: 18)-SK1 (IPN92H0033/IPN93L0024) was selected for further optimization. Histidine, Lysine, Arginine, aspartic acid, glutamic acid, and glutamine scanning was conducted for CDRs and certain positions of FRs of IPN92H0033/IPN93L0024. Variants with a mutation were generated and purified, and evaluated using Biacore by the method mentioned above. All variants were evaluated using Biacore as mentioned above. Mutations that improved “pH” and/or “pH and Ca” dependency were selected for the combination.

Binder	Kd (human C1s [1])	koff (human C1s [1])	kon (human C1s [1])	Kd (human C1s [2])	koff (human C1s [2])	kon (human C1s [2])	Kd (human C1s [3])	koff (human C1s [3])	kon (human C1s [3])	KD 5(-)/7(+) (human C1s [4])	KD 5(+)/7(+) (human C1s [5])	koff (human C1s [6])	kon (human C1s [6])
C1_IPN009VH2-SG4GK/IPN93L0028-SK1 (antibody, human IgG4 S228P, kappa, name in Kabat numbering, V domains shown, also called IPN009VH2/IPN93L0028) VH: EVMLVESGGGLVKPGGSLRLSCAASGFTFSNYAMSWVRQAPGKGLEWVATISSGGSHTYYLDSVKGRFTISRDNSKDTLYLQMNSLRAEDTALYYCARLFTGYAMDYWGQGTLVTVSS VL: QIVLTQSPATLSLSPGERATLSCTASSSVSSSYLHWYQQKPGKAPKLWIYSTSNLASGVPSRFSGSGSGTDYTLTISSLQPEDFATYYCHQYHRHPPITFGQGTKLEIKR	6.66 nM	0.00351 s⁻¹	528000 M⁻¹ s⁻¹	13.9 nM	0.00476 s⁻¹	343000 M⁻¹ s⁻¹	14.1 nM	0.00751 s⁻¹	534000 M⁻¹ s⁻¹	0.5	1	–	–
C1_IPN009VH2-SG4GK/IPN93L0030-SK1 (antibody, human IgG4 S228P, kappa, name in Kabat numbering, V domains shown, also called IPN009VH2/IPN93L0030) VH: EVMLVESGGGLVKPGGSLRLSCAASGFTFSNYAMSWVRQAPGKGLEWVATISSGGSHTYYLDSVKGRFTISRDNSKDTLYLQMNSLRAEDTALYYCARLFTGYAMDYWGQGTLVTVSS VL: QIVLTQSPATLSLSPGERATLSCTASSSVSSSYLHWYQQKPGKAPKLWIYSTSNLASGVPSRFSGSGSGTDYTLTISSLQPEDFATYYCHQYYRHHPITFGQGTKLEIKR	1.3 nM	0.00577 s⁻¹	4.42e+06 M⁻¹ s⁻¹	25.5 nM	0.0156 s⁻¹	612000 M⁻¹ s⁻¹	45.6 nM	0.0222 s⁻¹	487000 M⁻¹ s⁻¹	0.1	1.8	–	–
C1_IPN92H0033-SG4GK/IPN93L0024-SK1 (antibody, human IgG4 S228P, kappa, also called IPN92H0033/IPN93L0024) heavy: not shown light: QIVLTQSPATLSLSPGERATLSCTASSSVSSSYLHWYQQKPGKAPKLWIYSTSNLASGVPSRFSGSGSGTDYTLTISSLQPEDFATYYCHQYYRLHPITFGQGTKLEIKRTVAAPSVFIFPPSDEQLKSGTASVVCLLNNFYPREAKVQWKVDNALQSGNSQESVTEQDSKDSTYSLSSTLTLSKADYEKHKVYACEVTHQGLSSPVTKSFNRGEC	–	–	–	–	0.000776 s⁻¹	268000 M⁻¹ s⁻¹	–	0.0045 s⁻¹	519000 M⁻¹ s⁻¹	1.8	3	0.000776 s⁻¹	268000 M⁻¹ s⁻¹
C1_IPN009VH2-SG4GK/IPN93L0029-SK1 (antibody, human IgG4 S228P, kappa, name in Kabat numbering, V domains shown, also called IPN009VH2/IPN93L0029) VH: EVMLVESGGGLVKPGGSLRLSCAASGFTFSNYAMSWVRQAPGKGLEWVATISSGGSHTYYLDSVKGRFTISRDNSKDTLYLQMNSLRAEDTALYYCARLFTGYAMDYWGQGTLVTVSS VL: QIVLTQSPATLSLSPGERATLSCTASSSVSSSYLHWYQQKPGKAPKLWIYSTSNLASGVPSRFSGSGSGTDYTLTISSLQPEDFATYYCHQYHRLHPITFGQGTKLEIKR	5.54 nM	0.00296 s⁻¹	534000 M⁻¹ s⁻¹	18.2 nM	0.00897 s⁻¹	494000 M⁻¹ s⁻¹	15.5 nM	0.00857 s⁻¹	553000 M⁻¹ s⁻¹	0.3	0.9	–	–
C1_IPN92H0026-SG4GK/IPN93L0023-SK1 (antibody, human IgG4 S228P, kappa, name in Kabat numbering, V domains shown, also called IPN92H0026/IPN93L0023) VH: EVMLVESGGGLVKPGGSLRLSCAASGFTFSNYAMSWVRQAPGKGLEWVATISSGGSHTYYLDSVKHRFTISRDNSKDTLYLQMNSLRAEDTALYYCARLFTGYAMDYWGQGTLVTVSS VL: QIVLTQSPATLSLSPGERATLSCTASSSVSSSYLHWYQQKPGKAPKLWIYSTSNLASGVPSRFSGSGSGTDYTLTISSLQPEDFATYYCHQYYRHPPITFGQGTKLEIKR	9.95 nM	0.0619 s⁻¹	6.23e+06 M⁻¹ s⁻¹	1.16 nM	0.000608 s⁻¹	523000 M⁻¹ s⁻¹	1.53 nM	0.00124 s⁻¹	813000 M⁻¹ s⁻¹	8.6	1.3	–	–

Second part, the binder after the results:

Kd (human C1s [1])	koff (human C1s [1])	kon (human C1s [1])	Kd (human C1s [2])	koff (human C1s [2])	kon (human C1s [2])	Kd (human C1s [3])	koff (human C1s [3])	kon (human C1s [3])	KD 5(-)/7(+) (human C1s [4])	KD 5(+)/7(+) (human C1s [5])	koff (human C1s [6])	kon (human C1s [6])	Binder
–	0.00352 s⁻¹	711 M⁻¹ s⁻¹	–	8e-06 s⁻¹	47600 M⁻¹ s⁻¹	–	0.0127 s⁻¹	532000 M⁻¹ s⁻¹	29500	142	–	–	C1_IPN009VH2-SG4GK/IPN93L0031-SK1 (antibody, human IgG4 S228P, kappa, name in Kabat numbering, V domains shown, also called IPN009VH2/IPN93L0031) VH: EVMLVESGGGLVKPGGSLRLSCAASGFTFSNYAMSWVRQAPGKGLEWVATISSGGSHTYYLDSVKGRFTISRDNSKDTLYLQMNSLRAEDTALYYCARLFTGYAMDYWGQGTLVTVSS VL: QIVLTQSPATLSLSPGERATLSCTASSSVSSSYLHWYQQKPGKAPKLWIYSTSNLASGVPSRFSGSGSGTDYTLTISSLQPEDFATYYCHQYHRHHPITFGQGTKLEIKR
8.12 nM	0.17 s⁻¹	2.1e+07 M⁻¹ s⁻¹	0.804 nM	0.000472 s⁻¹	587000 M⁻¹ s⁻¹	1.95 nM	0.00149 s⁻¹	763000 M⁻¹ s⁻¹	10.1	2.4	–	–	C1_IPN92H0026-SG4GK/IPN93L0021-SK1 (antibody, human IgG4 S228P, kappa, name in Kabat numbering, V domains shown, also called IPN92H0026/IPN93L0021) VH: EVMLVESGGGLVKPGGSLRLSCAASGFTFSNYAMSWVRQAPGKGLEWVATISSGGSHTYYLDSVKHRFTISRDNSKDTLYLQMNSLRAEDTALYYCARLFTGYAMDYWGQGTLVTVSS VL: QIVLTQSPATLSLSPGERATLSCTASSSVSSSYLHWYQQKPGKAPKLWIYSTSNLASGVPSRFSGSGSGTDYTLTISSLQPEDFATYYCHQYHRLPPITFGQGTKLEIKR
